Laboratory results as given in patent US20260266848A1, “COMPOSITIONS AND METHODS FOR DIAGNOSING AND TREATING DYSTONIA” (Duke University, priority 2023, published 2026).

B1: Pdia6 (protein, UniProt Q922R8 20-440, looked up)
Protein disulfide-isomerase A6: LYSSSDDVIELTPSNFNREVIQSDGLWLVEFYAPWCGHCQRLTPEWKKAATALKDVVKVGAVNADKHQSLGGQYGVQGFPTIKIFGANKNKPEDYQGGRTGEAIVDAALSALRQLVKDRLGGRSGGYSSGKQGRGDSSSKKDVVELTDDTFDKNVLDSEDVWMVEFYAPWCGHCKNLEPEWAAAATEVKEQTKGKVKLAAVDATVNQVLASRYGIKGFPTIKIFQKGESPVDYDGGRTRSDIVSRALDLFSDNAPPPELLEIINEDIAKKTCEEHQLCVVAVLPHILDTGAAGRNSYLEVLLKLADKYKKKMWGWLWTEAGAQYELENALGIGGFGYPAMAAINARKMKFALLKGSFSEQGINEFLRELSFGRGSTAPVGGGSFPTITPREPWDGKDGELPVEDDIDLSDVELDDLEKDEL
B2: Cd276 (protein, UniProt Q8VE98 29-316, looked up)
CD276 antigen: VEVQVSEDPVVALVDTDATLRCSFSPEPGFSLAQLNLIWQLTDTKQLVHSFTEGRDQGSAYSNRTALFPDLLVQGNASLRLQRVRVTDEGSYTCFVSIQDFDSAAVSLQVAAPYSKPSMTLEPNKDLRPGNMVTITCSSYQGYPEAEVFWKDGQGVPLTGNVTTSQMANERGLFDVHSVLRVVLGANGTYSCLVRNPVLQQDAHGSVTITGQPLTFPPEALWVTVGLSVCLVVLLVALAFVCWRKIKQSCEEENAGAEDQDGDGEGSKTALRPLKPSENKEDDGQEIA
B3: Mvd (protein, UniProt P53602 2-400, looked up)
Diphosphomevalonate …: ASEKPLAAVTCTAPVNIAVIKYWGKRDEELVLPINSSLSVTLHQDQLKTTTTAVISKDFTEDRIWLNGREEDVGQPRLQACLREIRCLARKRRNSRDGDPLPSSLSCKVHVASVNNFPTAAGLASSAAGYACLAYTLARVYGVESDLSEVARRGSGSACRSLYGGFVEWQMGEQADGKDSIARQVAPESHWPELRVLILVVSAEKKLTGSTVGMRASVETSPLLRFRAESVVPARMAEMARCIRERDFPSFAQLTMKDSNQFHATCLDTFPPISYLNAISWRIIHLVHRFNAHHGDTKVAYTFDAGPNAVIFTLDDTVAEFVAAVWHGFPPGSNGDTFLKGLQVRPAPLSAELQAALAMEPTPGGVKYIIVTQVGPGPQILDDPCAHLLGPDGLPKPAA
B4: Lmna (protein, UniProt P48678 1-662, looked up)
Prelamin-A/C: METPSQRRATRSGAQASSTPLSPTRITRLQEKEDLQELNDRLAVYIDRVRSLETENAGLRLRITESEEVVSREVSGIKAAYEAELGDARKTLDSVAKERARLQLELSKVREEFKELKARNTKKEGDLLAAQARLKDLEALLNSKEAALSTALSEKRTLEGELHDLRGQVAKLEAALGEAKKQLQDEMLRRVDAENRLQTLKEELDFQKNIYSEELRETKRRHETRLVEIDNGKQREFESRLADALQELRAQHEDQVEQYKKELEKTYSAKLDNARQSAERNSNLVGAAHEELQQSRIRIDSLSAQLSQLQKQLAAKEAKLRDLEDSLARERDTSRRLLAEKEREMAEMRARMQQQLDEYQELLDIKLALDMEIHAYRKLLEGEEERLRLSPSPTSQRSRGRASSHSSQSQGGGSVTKKRKLESSESRSSFSQHARTSGRVAVEEVDEEGKFVRLRNKSNEDQSMGNWQIRRQNGDDPLMTYRFPPKFTLKAGQVVTIWASGAGATHSPPTDLVWKAQNTWGCGSSLRTALINSTGEEVAMRKLVRSLTMVEDNEDDDEDGEELLHHHRGSHCSGSGDPAEYNLRSRTVLCGTCGQPADKAAGGAGAQVGGSISSGSSASSVTVTRSFRSVGGSGGGSFGDNLVTRSYLLGNSSPRSQSSQNC
B5: Ap3d1 (protein, UniProt O54774 2-1199, looked up)
AP-3 complex subunit delta-1: ALKMVKGSIDRMFDKNLQDLVRGIRNHKEDEAKYISQCIDEIKQELKQDNIAVKANAVCKLTYLQMLGYDISWAAFNIIEVMSASKFTFKRVGYLAASQCFHEGTDVIMLTTNQIRKDLSSPSQYDTGVALTGLSCFVTPDLARDLANDIMTLMSHTKPYIRKKAVLIMYKVFLKYPESLRPAFPRLKEKLEDPDPGVQSAAVNVICELARRNPKNYLSLAPLFFKLMTSSTNNWVLIKIIKLFGALTPLEPRLGKKLIEPLTNLIHSTSAMSLLYECVNTVIAVLISLSSGMPNHSASIQLCVQKLRILIEDSDQNLKYLGLLAMSKILKTHPKSVQSHKDLILQCLDDKDESIRLRALDLLYGMVSKKNLMEIVKKLMTHVDKAEGTTYRDELLTKIIDICSQSNYQHITNFEWYISILVELTRLEGTRHGHLIAAQMLDVAIRVKAIRKFAVSQMSSLLDSAHLVASSTQRNGICEVLYAAAWICGEFSEHLQGPQQTLEAMLRPKVTTLPGHIQAVYVQNVVKLYASILQQKEQAADTEAAQEVTQLLVERLPQFVQSADLEVQERASCILQLVKHVQKLQAKGVPVAEEVSALFAGELNPVAPKAQKKVPVPEGLDLDAWINEPPSDSESEDEKPKAIFHEEEPRHTRRRQPEEDEEELARRREARKQEQANNPFYIKSSPSPQKRYQDAPGVEHIPVVQIDLSVPLKVPGMPMSDQYVKLEEQRRHRQRLEKDKKRKKKEKGKRRHSSLPTESDEDIAPAQRVDIITEEMPENALPSDEDDKDPNDPYRALDIDLDKPLADSEKLPVQKHRNAEAVKSPEKEGVLGVEKKSKKPKKKEKKTKEREREKKDKKGEDLDFWLSTTPPPAAAPIPAPSTEELAASTITSPKDECEVLKGEEEDHVDHDQERKSSRHKKKKHRKEKEKEERPRDKKKAKKKQVAPLENGAAAEEEEEPIPPMSSYCLLAESPYIKVTYDIQASLQKDSQVTVSIILENQSSSFLKNMELNVLDSLNTKMTRPEGSSVHDGVPVPFQLPPGVSNEAQFVFTIQSIVMAQKLKGTLSFIAKDDEGATHEKLDFRLHFSCSSYLITTPCYSDAFAKLLESGDLSMNSIKVDGISMSFQNLLAKICFYHHFSVVERVDSCASMYSRSIQGHHVCLLVKKGESSVSVDGKCSDATLLSSLLEEMKTTLAQC
B6: Aco1 (protein, UniProt P28271 1-889, looked up)
Cytoplasmic aconitate …: MKNPFAHLAEPLDAAQPGKRFFNLNKLEDSRYGRLPFSIRVLLEAAVRNCDEFLVKKNDIENILNWNVMQHKNIEVPFKPARVILQDFTGVPAVVDFAAMRDAVKKLGGNPEKINPVCPADLVIDHSIQVDFNRRADSLQKNQDLEFERNKERFEFLKWGSQAFCNMRIIPPGSGIIHQVNLEYLARVVFDQDGCYYPDSLVGTDSHTTMIDGLGVLGWGVGGIEAEAVMLGQPISMVLPQVIGYKLMGKPHPLVTSTDIVLTITKHLRQVGVVGKFVEFFGPGVAQLSIADRATIANMCPEYGATAAFFPVDEVSIAYLLQTGREEDKVKHIQKYLQAVGMFRDFNDTSQDPDFTQVVELDLKTVVPCCSGPKRPQDKVAVSEMKKDFESCLGAKQGFKGFQVAPDRHNDRKTFLYSNSEFTLAHGSVVIAAITSCTNTSNPSVMLGAGLLAKKAVEAGLSVKPYIKTSLSPGSGVVTYYLRESGVMPYLSQLGFDVVGYGCMTCIGNSGPLPEPVVEAITQGDLVAVGVLSGNRNFEGRVHPNTRANYLASPPLVIAYAIAGTVRIDFEKEPLGVNAQGRQVFLKDIWPTRDEIQAVERQHVIPGMFKEVYQKIETVNKSWNALAAPSEKLYAWNPKSTYIKSPPFFESLTLDLQPPKSIVDAYVLLNLGDSVTTDHISPAGNIARNSPAARYLTNRGLTPREFNSYGSRRGNDAIMARGTFANIRLLNKFLNKQAPQTVHLPSGETLDVFDAAERYQQAGLPLIVLAGKEYGSGSSRDWAAKGPFLLGIKAVLAESYERIHRSNLVGMGVIPLEYLPGETADSLGLTGRERYTINIPEDLKPRMTVQIKLDTGKTFQAVMRFDTDVELTYFHNGGILNYMIRKMAQ
B7: Dhx15 (protein, UniProt O35286 1-795, looked up)
ATP-dependent RNA helicase …: MSKRHRLDLGEDYPSGKKRAGTDGKDRERDRDREDRSKDRDRERDRGDREREREKEKEKELRASTNAMLISAGLPPLKASHSAHSTHSAHSTHSTHSAHSTHTGHTGHTSLPQCINPFTNLPHTPRYYDILKKRLQLPVWEYKDRFTDILVRHQSFVLVGETGSGKTTQIPQWCVEYMRSLPGPKRGVACTQPRRVAAMSVAQRVADEMDVMLGQEVGYSIRFEDCSSAKTILKYMTDGMLLREAMNDPLLERYGVIILDEAHERTLATDILMGVLKEVVRQRSDLKVIVMSATLDAGKFQIYFDNCPLLTIPGRTHPVEIFYTPEPERDYLEAAIRTVIQIHMCEEEEGDLLLFLTGQEEIDEACKRIKREVDDLGPEVGDIKIIPLYSTLPPQQQQRIFEPPPPKKQNGAIGRKVVVSTNIAETSLTIDGVVFVIDPGFAKQKVYNPRIRVESLLVTAISKASAQQRAGRAGRTRPGKCFRLYTEKAYKTEMQDNTYPEILRSNLGSVVLQLKKLGIDDLVHFDFMDPPAPETLMRALELLNYLAALNDDGDLTELGSMMAEFPLDPQLAKMVIASCDYNCSNEVLSITAMLSVPQCFVRPTEAKKAADEAKMRFAHIDGDHLTLLNVYHAFKQNHESVQWCYDNFINYRSLMSADNVRQQLSRIMDRFNLPRRSTDFTSRDYYINIRKALVTGYFMQVAHLERTGHYLTVKDNQVVQLHPSTVLDHKPEWVLYNEFVLTTKNYIRTCTDIKPEWLVKIAPQYYDMSNFPQCEAKRQLDRIIAKLQSKEYSQY

Legend:
[1] = test system: WT MEF EVs; test: Quantitative LC-MS/MS proteomics of EVs from ISRIB-treated WT MEF cultures; format: cell-based, mouse; parameters: key to ISRIB and DYT Parallel Direction / ISRIB and DYT Parallel Direction, Ctdsp1 / ISRIB and DYT Parallel Direction, Pcdh19 / ISRIB and DYT Parallel Direction, Tspan7 / ISRIB and DYT Parallel Direction, Myo1e / ISRIB and DYT Parallel Direction, Plpp3 / ISRIB and DYT Parallel Direction, Sh3bp4 / ISRIB and DYT Parallel Direction, Dnajc7 / ISRIB and DYT Parallel Direction, Drg1 / ISRIB and DYT Parallel Direction, Maea: YES = protein abundance effect similar to DYT/WT; conditions: EV protein abundance; for WT + ISRIB/WT Cohen's d: ISRIB-treated WT vs WT; for ISRIB and DYT Parallel Direction: WT + ISRIB vs WT, direction compared with DYT/WT
[2] = test system: DYT-TOR1A MEF EVs; test: Quantitative LC-MS/MS proteomics of EVs from drug-treated DYT-TOR1A MEF cultures (ritonavir, salubrinal); format: cell-based, mouse; parameters: key to RTV Corrective Direction / RTV Corrective Direction, Grwd1 / RTV Corrective Direction, Srrm2 / RTV Corrective Direction, Rbm17 / RTV Corrective Direction, Dcaf8 / RTV Corrective Direction, Edil3 / RTV Corrective Direction, Timp3 / RTV Corrective Direction, Heatr3 / RTV Corrective Direction, Brd4 / RTV Corrective Direction, P3h4 / RTV Corrective Direction, Pacsin3 / RTV Corrective Direction, Naa50 / RTV Corrective Direction, Lpar6 / RTV Corrective Direction, Ndrg1 / RTV Corrective Direction, Kntc1 / RTV Corrective Direction, Cdk11b / RTV Corrective Direction, Sumo1 / RTV Corrective Direction, Lsm4 / RTV Corrective Direction, Hmga2 / RTV Corrective Direction, Cstf1 / RTV Corrective Direction, Tes / RTV Corrective Direction, Sbno1 / RTV Corrective Direction, Unc119b / RTV Corrective Direction, Cfdp1 / RTV Corrective Direction, Sec61b: YES = protein abundance effect opposite to DYT/WT; conditions: EV protein abundance; for RTV Corrective Direction: DYT + RTV (ritonavir) vs DYT, direction compared with DYT/WT; for DYT + RTV/DYT Cohen's d: ritonavir (RTV)-treated DYT vs DYT

Molecule	WT + ISRIB/WT Cohen's d [1]	ISRIB and DYT Parallel Direction [1]	RTV Corrective Direction [2]	DYT + RTV/DYT Cohen's d [2]
B1	−1.84	YES	YES	3.27
B2	−2.07	YES	YES	1.75
B3	−0.34	YES	YES	4.38
B4	−0.19	YES	YES	3.97
B5	−0.19	YES	YES	3.27
B6	−1.03	YES	YES	3.33
B7	−1.19	YES	YES	4.59
